Assay results from article PMC7382286, “Extensive sequence and structural evolution of Arginase 2 inhibitory antibodies enabled by an unbiased approach to affinity maturation” (Proceedings of the National Academy of Sciences of the …, 2020).
Numbering of substitutions follows the chain as printed. Each block holds one binder with its values, some of them ahead of it.

Experiments:
[1] = molecular target: T1, recombinant human Arginase 2 (human, UniProt P78540); test: cell-based or functional assay
[2] = molecular target: T1, recombinant human Arginase 2; test: SEC; Fab and ARG2 in solution; ratio of Fab to ARG2 upon complex formation; settings: both partners purified
[3] = molecular target: T1, recombinant human Arginase 2; test: crystal structure; ARG2-Fab C0020187 complex purified by SEC, crystallised; space group P 6(5) 2 2, 3.25 Å; settings: both partners purified
[4] = molecular target: T2, biotinylated recombinant human Arginase 2 (Homo sapiens, UniProt P78540, biotin (biotinylated; site not stated)); test: BLI; OctetRED96, 25 °C, PBS with 0.01% BSA and 0.002% Tween 20; biotinylated human ARG2 captured on streptavidin sensors, Fabs titrated as analyte; 1:1 binding model (heterogeneous ligand model for C0020187); settings: both partners purified
T2 construct: Arginase 2 (ARG2), human, recombinant; Construct, tags and the way of biotinylation are in the SI Appendix; also called ARG2; biotinylated human ARG2; source: recombinant

[5] = molecular target: the molecule itself; test: crystal structure; ARG2-Fab C0020187 complex purified by SEC, crystallised; space group P 6(5) 2 2, 3.25 Å

B1: Fab C0020187 (Fab, V domains shown)
VH: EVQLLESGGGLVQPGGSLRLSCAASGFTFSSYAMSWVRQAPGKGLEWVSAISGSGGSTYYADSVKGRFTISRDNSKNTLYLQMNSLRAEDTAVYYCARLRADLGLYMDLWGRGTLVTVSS
VL: QSVLTQPPSVSAAPGQKVTISCSGSSSNIGNHYVSWYQQLPGTAPKLLIYDNSERPSGIPDRFSGSKSGTSATLGITGLQTGDEADYYCGTWDSSLSALVFGGGTKLTVL
notes: VH of C0020187; Fab heavy-chain constant region; VL of C0020187; Fab light-chain constant region; also called parental antibody; parent Fab C0020187
inhibition of the enzymatic activity of recombinant human ARG2 (1 µg/mL, ~24 nM; urea measured colorimetrically), IC50 [1]: 900 nM
stoichiometry N [2]: 1 Fab per ARG2 trimer
stoichiometry N [3]: 3 Fab per ARG2 trimer
KD of the initial high-affinity binding site (heterogeneous ligand model) [4]: ~10 nM

B5: Fab C0021158 (Fab, V domains shown)
VH: EVQLLESGGGLVQPGGSLRLSCAASGFTFRYEVAAWVRQAPGKGLEWVSAISGPIPKGYYADSVKGRFTISRDNSKNTLYLQMNSLRAEDTAVYYCARLRADLGLYMDLWGRGTLVTVSS
VL: B1 VL with P56T, S57A, I59V, S94E, S95L, L96T, A98N
notes: VH of C0021158; VL of C0021158; Pool-maturation lead; 18 amino acid changes against C0020187
stoichiometry N [2]: 3 Fab per ARG2 trimer

B7: Fab C0021177 (Fab, V domains shown)
VH: B5 VH with I55A
VL: QSELTQPPTASAAPGQKVTISCSGSSSNIGNHYVSWYQQLPGTAPKLLIYDTTVLSSGIPDRFSGSKSGTSATLGITGLQTGDEADYYCGTWDELTSNLVFGGGTKLTVL
notes: VH of C0021177; VL of C0021177; Pool-maturation lead
stoichiometry N [2]: 3 Fab per ARG2 trimer

B8: recombinant human Arginase 2 (enzyme)
chain: VHSVAVIGAPFSQGQKRKGVEHGPAAIREAGLMKRLSSLGCHLKDFGDLSFTPVPKDDLYNNLIVNPRSVGLANQELAEVVSRAVSDGYSCVTLGGDHSLAIGTISGHARHCPDLCVVWVDAHADINTPLTTSSGNLHGQPVSFLLRELQDKVPQLPGFSWIKPCISSASIVYIGLRDVDPPEHFILKNYDIQYFSMRDIDRLGIQKVMERTFDLLIGKRQRPIHLSFDIDAFDPTLAPATGTPVVGGLTYREGMYIAEEIHNTGLLSALDLVEVNPQLATSEEEAKTTANLAVDVIASSFGQTREGGHIVYDQLPTPSSPDESENQARVRI
notes: Arginase 2 (ARG2), human, recombinant; also called ARG2; trimeric ARG2; source: recombinant
stoichiometry N [5]: 3

More lines, now with the values ahead:

stoichiometry N [2]: 3 Fab per ARG2 trimer
B2: Fab C0021181 (Fab, V domains shown)
VH: EVQLLESGGGLVRPGGSLRLSCAASEFTFRYDYHVWVRQAPGKGLEWVSAISGSGGSTYYADSVKSRFTISRDNSKNTLYLQMNSLRAEDTAVYYCARLRADLGLYMDLWGRGTLVTVSS
VL: B1 VL with T19A, I20V, N31S, P56T, S94E, S95L, L96T, A98N, K106R
notes: VH of C0021181; VL of C0021181; Pool-maturation lead; 18 amino acid changes against C0020187

binding result [4]: binds
B3: Fab C0021133 (Fab, V domains shown)
VH: B2 VH with R13Q, E26G, Y33H, S66G
VL: B7 VL with E3V, T9S, A10V, I20V
notes: VH of C0021133; Fab heavy-chain constant region; VL of C0021133; Fab light-chain constant region

binding result [4]: binds
B4: Fab C0021139 (Fab, V domains shown)
VH: B2 VH with R13Q, E26G, R30Q, H34Q, S66G
VL: B1 VL with P56T, S94E, S95L, L96T, A98N
notes: VH of C0021139; Fab heavy-chain constant region; VL of C0021139; Fab light-chain constant region

binding result [4]: binds
B6: Fab C0021128 (Fab, V domains shown)
VH: B5 VH with R30Q
VL: B1 VL with S53A, E54I, R55E, P56S, E84G, S95N
notes: VH of C0021128; Fab heavy-chain constant region; VL of C0021128; Fab light-chain constant region
